Measurements reported in publication PMC12345223.

How the values were obtained:
ChCpc1 [1] = target: T1, ChCpc1 (Cochliobolus heterostrophus C4 (Tox1+, …, UniProt M2T2C6 1-465)); assay: EMSA; 100x unlabeled competitor prevents binding; Light Shift Chemiluminescent EMSA Kit (Beyotime), 20 min at 25°C; 6.5% polyacrylamide gel, 0.5x TBE; binding buffer, salt and pH not stated; details: protein: recombinant, tags: His (pET-32a), chain copies: 2, label: biotin (on forward strand)
T1 sequence: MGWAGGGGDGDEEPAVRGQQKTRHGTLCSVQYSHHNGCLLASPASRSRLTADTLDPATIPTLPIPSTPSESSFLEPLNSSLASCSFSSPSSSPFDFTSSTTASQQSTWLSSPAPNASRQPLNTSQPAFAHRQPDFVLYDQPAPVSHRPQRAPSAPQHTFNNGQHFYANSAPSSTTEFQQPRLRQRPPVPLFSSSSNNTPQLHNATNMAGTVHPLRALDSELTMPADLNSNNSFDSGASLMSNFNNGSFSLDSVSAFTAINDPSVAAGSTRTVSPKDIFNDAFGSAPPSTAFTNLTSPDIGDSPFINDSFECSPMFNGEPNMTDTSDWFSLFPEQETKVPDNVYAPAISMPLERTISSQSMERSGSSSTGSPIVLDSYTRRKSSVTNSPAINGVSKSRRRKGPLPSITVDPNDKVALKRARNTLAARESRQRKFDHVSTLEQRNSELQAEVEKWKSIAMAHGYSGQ

ChAtf1 = target: T2, ChAtf1 (Cochliobolus heterostrophus C4 (Tox1+, …, UniProt M2TIN4 1-567)); assay: EMSA; ChAtf1 alone; Light Shift Chemiluminescent EMSA Kit (Beyotime), 20 min at 25°C; 6.5% polyacrylamide gel, 0.5x TBE; binding buffer, salt and pH not stated; details: protein: recombinant; tags: His (pET32a); chain copies: 2; label: biotin (on forward strand); blunt
T2 sequence: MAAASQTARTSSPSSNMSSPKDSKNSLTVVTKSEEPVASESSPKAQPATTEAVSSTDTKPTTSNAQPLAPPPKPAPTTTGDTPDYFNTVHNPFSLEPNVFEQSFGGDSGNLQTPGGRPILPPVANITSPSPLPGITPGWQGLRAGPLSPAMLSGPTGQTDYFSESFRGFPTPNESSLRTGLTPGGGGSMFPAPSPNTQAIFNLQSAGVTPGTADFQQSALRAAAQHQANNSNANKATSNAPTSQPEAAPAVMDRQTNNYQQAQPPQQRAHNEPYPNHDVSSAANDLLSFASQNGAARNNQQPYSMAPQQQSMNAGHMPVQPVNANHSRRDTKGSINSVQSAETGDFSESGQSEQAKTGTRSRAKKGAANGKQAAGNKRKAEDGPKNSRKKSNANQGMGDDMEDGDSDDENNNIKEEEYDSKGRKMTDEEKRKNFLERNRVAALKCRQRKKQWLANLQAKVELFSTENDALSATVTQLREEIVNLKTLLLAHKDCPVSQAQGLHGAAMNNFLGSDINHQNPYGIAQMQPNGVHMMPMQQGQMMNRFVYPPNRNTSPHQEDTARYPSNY

ChCpc1 [2] = target: T1, ChCpc1; assay: EMSA; Light Shift Chemiluminescent EMSA Kit (Beyotime), 20 min at 25°C; 6.5% polyacrylamide gel, 0.5x TBE; binding buffer, salt and pH not stated; details: protein: recombinant; tags: His (pET-32a); chain copies: 2; label: biotin (on forward strand); blunt
ChCpc1 [3] = target: T1, ChCpc1; assay: EMSA; strongest of the four ATG probes; Light Shift Chemiluminescent EMSA Kit (Beyotime), 20 min at 25°C; 6.5% polyacrylamide gel, 0.5x TBE; binding buffer, salt and pH not stated; details: protein: recombinant; tags: His (pET-32a); chain copies: 2; label: biotin (on forward strand); blunt

| Binder | binding result (ChAtf1) | binding result (ChCpc1 [2]) | other results |
| --- | --- | --- | --- |
| ChARG1 promoter probe (dsDNA) DNA 1: AAGACAGTGGTGGAGATCAAGTTGGATGAGTAACTTGGCGCTGCACTCGATTCGCGTGTT DNA 2: CCAACTTGATCTCCACCACTGTCTT |  |  | binding result (ChCpc1 [1]; printed reverse oligo (25 nt) pairs only with nt 1-25 of the 60-nt forward strand, possibly printed incomplete): binds |
| ChARG4 promoter probe (dsDNA) DNA 1: CATTGGCGTTTGGGACTGAATTACAATGAGTAATGAAATAACTCACACCACAAAGCAGTA DNA 2: TACTGCTTTGTGGTGTGAGTTATTTCATTACTCATTGTAATTCAGTCCCAAACGCCAATG | no binding |  | binding result (ChCpc1 [1]; blunt): binds |
| ChATG5 promoter probe (dsDNA) DNA 1: CAGCTATGTTGCGTTAGTAAGTCACCCATCTACGCTGTCGC DNA 2: GCGACAGCGTAGATGGGTGACTTACTAACGCAACATAGCTG |  | binds |  |
| ChATG7 promoter probe (dsDNA) DNA 1: TCCCAAATGTCGGTCGTGACCCATCGTTCCCTCCATCTCA DNA 2: TGAGATGGAGGGAACGATGGGTCACGACCGACATTTGGGA |  | binds |  |
| ChATG8 promoter probe (dsDNA) DNA 1: GGAGAGCGTGAAGGAGAGAGACGGGATGAGTCAAAGTACCCAGGTAGCCAGGTCATGGGA DNA 2: TCCCATGACCTGGCTACCTGGGTACTTTGACTCATCCCGTCTCTCTCCTTCACGCTCTCC | no binding | binds |  |
| ChATG9 promoter probe (dsDNA) DNA 1: GCGGCGCGTCACCTGCATGAGTCCCATGTCGATGAGGCGCT DNA 2: AGCGCCTCATCGACATGGGACTCATGCAGGTGACGCGCCGC |  |  | binding result (ChCpc1 [3]): binds |
